Measurements reported in article PMC11446282.

What follows are molecules tested on PP2A-B55α (assay: Single alanine mutational scan, YFP-tagged interactors immunoprecipitated from HeLa cells, Western blot). Details: single alanine mutant of YFP-tagged ZDS1.
Assay type: binding, human

Molecule | Experimental % binding
ZDS1 S864: ZDS1, S864 to alanine (protein, UniProt P50111 1-915, looked up, variant S864A) Protein ZDS1: MSNRDNESMLRTTSSDKAIASQRDKRKSEVLIAAQSLDNEIRSVKNLKRLSIGSMDLLIDPELDIKFGGESSGRRSWSGTTSSSASMPSDTTTVNNTRYSDPTPLENLHGRGNSGIESSNKTKQGNYLGIKKGVHSPSRKLNANVLKKNLLWVPANQHPNVKPDNFLELVQDTLQNIQLSDNGEDNDGNSNENNDIEDNGEDKESQSYENKENNTINLNRGLSRHGNASLIRRPSTLRRSYTEFDDNEDDDNKGDSASETVNKVEERISKIKERPVSLRDITEELTKISNSAGLTDNDAITLARTLSMAGSYSDKKDQPQPEGHYDEGDIGFSTSQANTLDDGEFASNMPINNTMTWPERSSLRRSRFNTYRIRSQEQEKEVEQSVDEMKNDDEERLKLTKNTIKVEIDPHKSPFRQQDEDSENMSSPGSIGDFQDIYNHYRQSSGEWEQEMGIEKEAEEVPVKVRNDTVEQDLELREGTTDMVKPSATDDNKETKRHRRRNGWTWLNNKMSREDDNEENQGDDENEENVDSQRMELDNSKKHYISLFNGGEKTEVSNKEEMNNSSTSTATSQTRQKIEKTFANLFRRKPHHKHDASSSPSSSPSSSPSIPNNDAVHVRVRKSKKLGNKSGREPVEPIVLRNRPRPHRHHHSRHGSQKISVKTLKDSQPQQQIPLQPQLEGAIEIEKKEESDSESLPQLQPAVSVSSTKSNSRDREEEEAKKKNKKRSNTTEISNQQHSKHVQKENTDEQKAQLQAPAQEQVQTSVPVQASAPVQNSAPVQTSAPVEASAQTQAPAAPPLKHTSILPPRKLTFADVKKPDKPNSPVQFTDSAFGFPLPLLTVSTVIMFDHRLPINVERAIYRLAHLKLSNSKRGLREQVLLSNFMYAYLNLVNHTLYMEQVAHDKEQQQQQQQQP | 113%
ZDS1 H865: ZDS1, H865 to alanine (protein, UniProt P50111 1-915, looked up, variant H865A) Protein ZDS1: MSNRDNESMLRTTSSDKAIASQRDKRKSEVLIAAQSLDNEIRSVKNLKRLSIGSMDLLIDPELDIKFGGESSGRRSWSGTTSSSASMPSDTTTVNNTRYSDPTPLENLHGRGNSGIESSNKTKQGNYLGIKKGVHSPSRKLNANVLKKNLLWVPANQHPNVKPDNFLELVQDTLQNIQLSDNGEDNDGNSNENNDIEDNGEDKESQSYENKENNTINLNRGLSRHGNASLIRRPSTLRRSYTEFDDNEDDDNKGDSASETVNKVEERISKIKERPVSLRDITEELTKISNSAGLTDNDAITLARTLSMAGSYSDKKDQPQPEGHYDEGDIGFSTSQANTLDDGEFASNMPINNTMTWPERSSLRRSRFNTYRIRSQEQEKEVEQSVDEMKNDDEERLKLTKNTIKVEIDPHKSPFRQQDEDSENMSSPGSIGDFQDIYNHYRQSSGEWEQEMGIEKEAEEVPVKVRNDTVEQDLELREGTTDMVKPSATDDNKETKRHRRRNGWTWLNNKMSREDDNEENQGDDENEENVDSQRMELDNSKKHYISLFNGGEKTEVSNKEEMNNSSTSTATSQTRQKIEKTFANLFRRKPHHKHDASSSPSSSPSSSPSIPNNDAVHVRVRKSKKLGNKSGREPVEPIVLRNRPRPHRHHHSRHGSQKISVKTLKDSQPQQQIPLQPQLEGAIEIEKKEESDSESLPQLQPAVSVSSTKSNSRDREEEEAKKKNKKRSNTTEISNQQHSKHVQKENTDEQKAQLQAPAQEQVQTSVPVQASAPVQNSAPVQTSAPVEASAQTQAPAAPPLKHTSILPPRKLTFADVKKPDKPNSPVQFTDSAFGFPLPLLTVSTVIMFDHRLPINVERAIYRLSALKLSNSKRGLREQVLLSNFMYAYLNLVNHTLYMEQVAHDKEQQQQQQQQP | 75%
ZDS1 L866: ZDS1, L866 to alanine (protein, UniProt P50111 1-915, looked up, variant L866A) Protein ZDS1: MSNRDNESMLRTTSSDKAIASQRDKRKSEVLIAAQSLDNEIRSVKNLKRLSIGSMDLLIDPELDIKFGGESSGRRSWSGTTSSSASMPSDTTTVNNTRYSDPTPLENLHGRGNSGIESSNKTKQGNYLGIKKGVHSPSRKLNANVLKKNLLWVPANQHPNVKPDNFLELVQDTLQNIQLSDNGEDNDGNSNENNDIEDNGEDKESQSYENKENNTINLNRGLSRHGNASLIRRPSTLRRSYTEFDDNEDDDNKGDSASETVNKVEERISKIKERPVSLRDITEELTKISNSAGLTDNDAITLARTLSMAGSYSDKKDQPQPEGHYDEGDIGFSTSQANTLDDGEFASNMPINNTMTWPERSSLRRSRFNTYRIRSQEQEKEVEQSVDEMKNDDEERLKLTKNTIKVEIDPHKSPFRQQDEDSENMSSPGSIGDFQDIYNHYRQSSGEWEQEMGIEKEAEEVPVKVRNDTVEQDLELREGTTDMVKPSATDDNKETKRHRRRNGWTWLNNKMSREDDNEENQGDDENEENVDSQRMELDNSKKHYISLFNGGEKTEVSNKEEMNNSSTSTATSQTRQKIEKTFANLFRRKPHHKHDASSSPSSSPSSSPSIPNNDAVHVRVRKSKKLGNKSGREPVEPIVLRNRPRPHRHHHSRHGSQKISVKTLKDSQPQQQIPLQPQLEGAIEIEKKEESDSESLPQLQPAVSVSSTKSNSRDREEEEAKKKNKKRSNTTEISNQQHSKHVQKENTDEQKAQLQAPAQEQVQTSVPVQASAPVQNSAPVQTSAPVEASAQTQAPAAPPLKHTSILPPRKLTFADVKKPDKPNSPVQFTDSAFGFPLPLLTVSTVIMFDHRLPINVERAIYRLSHAKLSNSKRGLREQVLLSNFMYAYLNLVNHTLYMEQVAHDKEQQQQQQQQP | 52%
ZDS1 K867: ZDS1, K867 to alanine (protein, UniProt P50111 1-915, looked up, variant K867A) Protein ZDS1: MSNRDNESMLRTTSSDKAIASQRDKRKSEVLIAAQSLDNEIRSVKNLKRLSIGSMDLLIDPELDIKFGGESSGRRSWSGTTSSSASMPSDTTTVNNTRYSDPTPLENLHGRGNSGIESSNKTKQGNYLGIKKGVHSPSRKLNANVLKKNLLWVPANQHPNVKPDNFLELVQDTLQNIQLSDNGEDNDGNSNENNDIEDNGEDKESQSYENKENNTINLNRGLSRHGNASLIRRPSTLRRSYTEFDDNEDDDNKGDSASETVNKVEERISKIKERPVSLRDITEELTKISNSAGLTDNDAITLARTLSMAGSYSDKKDQPQPEGHYDEGDIGFSTSQANTLDDGEFASNMPINNTMTWPERSSLRRSRFNTYRIRSQEQEKEVEQSVDEMKNDDEERLKLTKNTIKVEIDPHKSPFRQQDEDSENMSSPGSIGDFQDIYNHYRQSSGEWEQEMGIEKEAEEVPVKVRNDTVEQDLELREGTTDMVKPSATDDNKETKRHRRRNGWTWLNNKMSREDDNEENQGDDENEENVDSQRMELDNSKKHYISLFNGGEKTEVSNKEEMNNSSTSTATSQTRQKIEKTFANLFRRKPHHKHDASSSPSSSPSSSPSIPNNDAVHVRVRKSKKLGNKSGREPVEPIVLRNRPRPHRHHHSRHGSQKISVKTLKDSQPQQQIPLQPQLEGAIEIEKKEESDSESLPQLQPAVSVSSTKSNSRDREEEEAKKKNKKRSNTTEISNQQHSKHVQKENTDEQKAQLQAPAQEQVQTSVPVQASAPVQNSAPVQTSAPVEASAQTQAPAAPPLKHTSILPPRKLTFADVKKPDKPNSPVQFTDSAFGFPLPLLTVSTVIMFDHRLPINVERAIYRLSHLALSNSKRGLREQVLLSNFMYAYLNLVNHTLYMEQVAHDKEQQQQQQQQP | 15%
ZDS1 L868: ZDS1, L868 to alanine (protein, UniProt P50111 1-915, looked up, variant L868A) Protein ZDS1: MSNRDNESMLRTTSSDKAIASQRDKRKSEVLIAAQSLDNEIRSVKNLKRLSIGSMDLLIDPELDIKFGGESSGRRSWSGTTSSSASMPSDTTTVNNTRYSDPTPLENLHGRGNSGIESSNKTKQGNYLGIKKGVHSPSRKLNANVLKKNLLWVPANQHPNVKPDNFLELVQDTLQNIQLSDNGEDNDGNSNENNDIEDNGEDKESQSYENKENNTINLNRGLSRHGNASLIRRPSTLRRSYTEFDDNEDDDNKGDSASETVNKVEERISKIKERPVSLRDITEELTKISNSAGLTDNDAITLARTLSMAGSYSDKKDQPQPEGHYDEGDIGFSTSQANTLDDGEFASNMPINNTMTWPERSSLRRSRFNTYRIRSQEQEKEVEQSVDEMKNDDEERLKLTKNTIKVEIDPHKSPFRQQDEDSENMSSPGSIGDFQDIYNHYRQSSGEWEQEMGIEKEAEEVPVKVRNDTVEQDLELREGTTDMVKPSATDDNKETKRHRRRNGWTWLNNKMSREDDNEENQGDDENEENVDSQRMELDNSKKHYISLFNGGEKTEVSNKEEMNNSSTSTATSQTRQKIEKTFANLFRRKPHHKHDASSSPSSSPSSSPSIPNNDAVHVRVRKSKKLGNKSGREPVEPIVLRNRPRPHRHHHSRHGSQKISVKTLKDSQPQQQIPLQPQLEGAIEIEKKEESDSESLPQLQPAVSVSSTKSNSRDREEEEAKKKNKKRSNTTEISNQQHSKHVQKENTDEQKAQLQAPAQEQVQTSVPVQASAPVQNSAPVQTSAPVEASAQTQAPAAPPLKHTSILPPRKLTFADVKKPDKPNSPVQFTDSAFGFPLPLLTVSTVIMFDHRLPINVERAIYRLSHLKASNSKRGLREQVLLSNFMYAYLNLVNHTLYMEQVAHDKEQQQQQQQQP | 56%
ZDS1 S869: ZDS1, S869 to alanine (protein, UniProt P50111 1-915, looked up, variant S869A) Protein ZDS1: MSNRDNESMLRTTSSDKAIASQRDKRKSEVLIAAQSLDNEIRSVKNLKRLSIGSMDLLIDPELDIKFGGESSGRRSWSGTTSSSASMPSDTTTVNNTRYSDPTPLENLHGRGNSGIESSNKTKQGNYLGIKKGVHSPSRKLNANVLKKNLLWVPANQHPNVKPDNFLELVQDTLQNIQLSDNGEDNDGNSNENNDIEDNGEDKESQSYENKENNTINLNRGLSRHGNASLIRRPSTLRRSYTEFDDNEDDDNKGDSASETVNKVEERISKIKERPVSLRDITEELTKISNSAGLTDNDAITLARTLSMAGSYSDKKDQPQPEGHYDEGDIGFSTSQANTLDDGEFASNMPINNTMTWPERSSLRRSRFNTYRIRSQEQEKEVEQSVDEMKNDDEERLKLTKNTIKVEIDPHKSPFRQQDEDSENMSSPGSIGDFQDIYNHYRQSSGEWEQEMGIEKEAEEVPVKVRNDTVEQDLELREGTTDMVKPSATDDNKETKRHRRRNGWTWLNNKMSREDDNEENQGDDENEENVDSQRMELDNSKKHYISLFNGGEKTEVSNKEEMNNSSTSTATSQTRQKIEKTFANLFRRKPHHKHDASSSPSSSPSSSPSIPNNDAVHVRVRKSKKLGNKSGREPVEPIVLRNRPRPHRHHHSRHGSQKISVKTLKDSQPQQQIPLQPQLEGAIEIEKKEESDSESLPQLQPAVSVSSTKSNSRDREEEEAKKKNKKRSNTTEISNQQHSKHVQKENTDEQKAQLQAPAQEQVQTSVPVQASAPVQNSAPVQTSAPVEASAQTQAPAAPPLKHTSILPPRKLTFADVKKPDKPNSPVQFTDSAFGFPLPLLTVSTVIMFDHRLPINVERAIYRLSHLKLANSKRGLREQVLLSNFMYAYLNLVNHTLYMEQVAHDKEQQQQQQQQP | 77%
